B1: TPR t1 (parent)
chain: GACCAAUCUGCCCUCAGAGCUCGAGAACAUCUUCGGAUGCAGAGGAGGCAGGCUUCGGUGGCGCGAUAGCGCCAACGUCCUCAACCUCCAAUGCAUCCCACCACAUGAUGAUGCCUGAAGAGCCUUGGUUUUUUG

Variants of: B1
Assay: polymerase ribozyme fitness, log enrichment relative to wild type (log ratio); higher = more active; in vitro selection for triplet polymerase activity
Outline: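 A heterodimeric triplet polymerase ribozyme had each of its subunits mutagenized by PCR into a library, which was transcribed. One round of in vitro selection, done in triplicate, annealed each library with a biotinylated primer, its partner subunit and triplets, then incubated it frozen at −7 °C before gel excision of extended constructs, streptavidin-bead capture and RT-PCR. Fitness is the logarithm of genotype enrichment relative to wild-type enrichment, based on Illumina sequencing of inputs and outputs and inverse-variance-weighted replicate averages. A base-2 logarithm is used, and genotypes were kept only with ≥10 input reads and ≥1 read per output.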

Compared with GACCAAUCCGCCCUCAGAGCUCGAGAACAUCUUCGGAUGAACAGGAGGCAGGCUUCGGUGGCGCGAUAGCGCAAACGUCCUCAACCUCCAAUGCAUCCCAACACAUGAUGAUGCCUGAAGAACCUUGGUAUUUUG, GACCAAUCCGCCCUCAGAGCUCGAGAACAUCUUCGGAUGCAGAGGAGGCAGGCUUCGGUGGCGCGAUAGCGCUAACGUCCUCAACCUCCAAUGCAUCCCACCACAUGAUGAUGCCUGAAGAGCCUUGGUUUUUUG is higher in “polymerase ribozyme fitness (log ratio)” value: -1.67 for the first, 0.362 for the second.

GACCAAUCCGCGGUCAGAGCUCGAGAACAUCUUCGGAUGCAGAGGAGGCCGGCUUCGGUGGCGCGAUAGUGCCAAAGACCUCAAUCUCCAAUGCAUCCCACCACAUGAUGAUGCCUGAAGAGCCUUGGUUUUUUG and GACCAAUCCGCCAUCAGAGCUCGAGAUCAUCUUCGGAUGCAGACGAGUCAGGCUUCGGUGGUGCGAUAGCGCCAACGUCCUCAACCUCCAAUGCAUCCCACCACAUGAUGAAGCCUGAAGAGCCUUGGUUUUUUG are within 0.2 log units of each other in “polymerase ribozyme fitness (log ratio)” value: -2.55 for the first, -2.71 for the second.

First: GACCAAUCCGCCCUCAGAGCUUGAGAACAUCUUAGGAUGCAGGGGAGGCAGGCUUCGGUGGCGCGAUAGCGCCAACAUCCUCAACCUCCAAUGCAUCCCACCACAAGAUGAUGCCUGAAGAGCCUUGGUUUUUUG
Second: GACCAAUCCGCCCUCAGAGCUCGAGAACAUCUUUGGAUGCAGAGGAGGCAGGCUUCGGUGGCGCGAUAUCGUCAACGUCCUCAACCUCCAAUGCAUCCCAACACAUGAUGAUGCCUAAAGAGCCAUGGUGUUUUG
The “polymerase ribozyme fitness (log ratio)” value of the first is lower: -7.59 for the first, -6.7 for the second.

Compared with GACCAAUCCGCCCUUAGAGCUCGAGAACAUCUUCGGAUGCACAGGAGGCAGGCUUCGGUGGCGCGAUAGCGCCAACGUCCUCAACCUCCAAUGCAUCCCACCACAUGAUGAUGCCUGAAGAGCCUUGGUUUUUUG, GACCAAUCCGCCCUCAGAGCUCGAGAACAUCUUCGGAUGAAGAGGAGGCAGGCUUCGGUGGCGCGAUAGCGCCAACGUCCUCAACCUCCAAUGCAUCCCACCACAUGAUGAUGCCUGAAGAGCCUUGGUAUUUUG is lower in “polymerase ribozyme fitness (log ratio)” value: -0.305 for the first, -0.631 for the second.

Compared with GACCAAUCCGCUCUCAGAGCUCGAGAACAUCUUCGGAUUCAGAGGAGGCAGGCUUCGGUGGCGCGAUAGAGCCAACGUCCUCAACCUCCAAUGCAUCCCACCACAUGAUGUUGCCUGAAGAGCAUUGGUUUUUUG, GACCAAUCCGCCUUCAGAGCUCGAGAACAUCUUCGGCUUCAGAGGAGGCAGGCUUCGGUGGCGCGAUAGCGCCAACGUCCUCAACCUCCAAUACAUCCCACCACAUGAUGAUGCCUGAAGAGCCUUGGUUUUUUG is higher in “polymerase ribozyme fitness (log ratio)” value: -5.75 for the first, -5.35 for the second.

First: GACCAAUCCGCCCUCAGAGCUCGAGAACAUCUUCGGAUGCAGAGGAGGCAGGCUUCGGUGGCGCGAUAGCGCCAACGUCCUCAACAUCCAAUGCAUCCAACCACAUGAUGAUGCCUGAAGAGCCUUGGUUUUUUG
Second: GACCAAUCCGCCCUCAGAGCUCGAGAACAUCUUCGGAUGCAGAGGAGGCAGGCUUGGGUGGUGCGAUAGCGCCAACGUCCUCAACCUCCAAUGCAUCCCACCACAUGAUGAUGCCUGAAGAGCCUUGGUUUUUUG
The “polymerase ribozyme fitness (log ratio)” value of the first is lower: -5.49 for the first, 0.103 for the second.

First: GACCAAUCCGCCCUCAGAGCUGGAGAACAUGUUCGGAGGCAGAGGAGGCAGGCUUCGGUGGCGCGAUAGCGCCAACGUCCUCAACCUCCAAUGCAUCCCACCACAUGAUGAUGCCUGAAGUGCCUUGGUUUUUUG
Second: GACCAAUCCGCCCUCAGAGCUCGAGAACAUCUUCGGAUGCAGAGGAGGCAGGCUUCGGUGGCGCGAUAGCGCCAACGUCCUCAACCUCAAAUGCAUCCCACCACAUGAUGAUGCCUGAAGAGCCUUGGUUUUUUG
The “polymerase ribozyme fitness (log ratio)” value of the first is lower: -6.73 for the first, -0.733 for the second.

Compared with GACCAAUCCGCCCUCAGAGCUCGAGAACAUCUUCGGAUGCAGAGGAGGUAGGCUUCGGUGGCGCGAUAGCGCCAACGUCCUCAACCUCCAAUGCAUCCCACCACAUGAUGAUGCCUGAAGAGCCUUGGUUUUUUG, GACCAAUCCGCACUCAGAGCUCGAGAACAUCUUCGGAUGCAGAGGAGGCAGGCUUCGGUGGCGCGAUAGCGCCAACGUCCUCAACCUCCAAUGCAUCCCACCACAUGAUGAUGCCUGAAGAGCCUUGGUUUUUUG is higher in “polymerase ribozyme fitness (log ratio)” value: 0.0306 for the first, 0.347 for the second.

Going from GACCAAUCCGCGCUCAGAGCUCGAGAACAUCUUCGGAUGCAGAGGAGGCAGGGUUCGGUGGUGCGAUAGCGCCAACGUCCUCAACCUCCAAUGCAUCCCACCACAUGAUGAUGCCUGAAGAGCCUUGGUUUUUUG to GACCAAUCCGCCCUCAGAGCUCGAGAACAUCUUCGGAUGCAGAGGAGGCAGGCUUCGGUGGCGCGAUAGGGCCAACGUCCUCAACCUCCAAUGCAUCCCACCACAUGAUGAUGCCUGAAGAGCCUUGGUUUUUUG, the “polymerase ribozyme fitness (log ratio)” value falls from -0.499 to -1.43.

GACCAAUCCGCCCUCAGAGCUCGAGAACAUCUUCGGAUGCAGAGGAGGCAGGCUUAGGUGGCGCGAUAGCGCCAACGUCCUCCACCUCCAAUGCAUCCCACCACAUGAUGAUGCCUGAAGAGCCUUGGUUUUUUG and GACCAAUCCGCCCUCAGAGCUCGAGAACAUCUUCGGAUGCAGAGGAGGCAGGCUUCGGUGGCGCGAUAGCGCAUACGUCCUCAACCUCCAAUGCAUCCCACCACAUGAUGAUGCCUGAAGAGCCUUGGUUUUUUG are within 0.2 log units of each other in “polymerase ribozyme fitness (log ratio)” value: 0.00737 for the first, 0.19 for the second.

Compared with GACCAAUCCGCCCUCAGAGCUCGAGAACAUCUUCGGAUGCAGAGGAGGCAGGCUUCGGUGGCGCGAUAGCGCUAACGUCCUCAAUCUCCAAUGCAUCCCACCACAUGAUGAUGCCUGAACAGCCUUGGUUUUUUG, GACCAAUCCGCCAUCAGAGCUCGAGAACAUCUUCGGAUGCAGAGGAGGCGGGCUUCGGUGGCGCGAUAGCGUCAACGUCCUCAUCCUCAAAUGCAUCUCACAACAUGAUGAUGCCUGAAGAGCCUUGGUUUUUUG is lower in “polymerase ribozyme fitness (log ratio)” value: 1.44 for the first, -6.4 for the second.

GACCAAUCCGCCCUCAGAGCUCGAGAACAUCUUCGGAUGCAGAGGAGGCAGGCUUCGGUGGCGCGAUAGCGCCAACGUCCUCAACCUCCAAUGAAUCCCCCCACAUGAUGAUGCCUGAAGAGCCUUCGUUUUUUU and GACCAAUCCGCCCUCAGAGCUCGAGAACAUCUUCGGAUGUAGGGGAGGGAGGCUUCGGUGGCGCGAUAGCGCCAACGUCCUCAACCUCCAAUGCAGCCCACCACAUGAUGAUGCCUGAGGAGCCUUGGUUAUUUG are within 0.2 log units of each other in “polymerase ribozyme fitness (log ratio)” value: -3 for the first, -3.12 for the second.

Going from GACCAAUCCGUCCUCAGAGCUCGAGAACAUCUUCGGAUGCAGAGGAGGCAGGCUUCGGUCGCGCGAUAGCUCCAACGUCCUCAACCUCCAAUGCAUCCCACCACAUGAUGAUGCCUGAAGAGCCUUGGUUUUAUG to GACCAAUCCGCCCUCAGAGGUCGAGAACAUCUUCGGAUGCAGAGGAGGCAGGCUUCGGUGGCGCGAUAGCGCCAACGUCCUCAACCUCCAAUGCAUCCCAUCACAUGAUGAUUCCUGAAGAGCCUUGGUUUUUUG, the “polymerase ribozyme fitness (log ratio)” value rises from -4.61 to -0.203.

First: GACCAAUCCGCCCUCAGAGCUCGAGAACAUCUUCGGAUGCAGAGGAGGCAGGCUUCGGUGGCGCGAUAGCGACAAUUUCCUCAACCUCCAAUGCAUCCCACCACAUGAUGAUGCCUGAAGAGCCUUGGUUUUUUG
Second: GACCAAUCCGCCCUCAGAGCUCGAGAACAUCUUCGGAUGCAGAGGAGGCAGGCUUGGGUGGCGCGAUAGCGCCAACGUCCUCAACCUGCAAUGCAUCCCACCACAUGAUGAUGCCUGAAGAGCCUUGGUUUUUUG
The “polymerase ribozyme fitness (log ratio)” value of the first is lower: -2.24 for the first, -1.64 for the second.

First: GACCAAUCCGCCCUGAGAGCUCGAGAACAUCUUCGGAUGCAGUGGAGGCAGGCUUCGGUGGCGCGAUAGCGCCAACGUCCUCAACCUCCAAUGCAUCCCACCACAUGAUGAUGCCUGAAGAGCCUUGGUUCUUUG
Second: GACCAAUCCGCACUCAGAGCACGAGAACAUCUUCGGAUGCAGAGGAGGCAGGCUUCGGUGGCGCGAUAGCGCCAACGUCAUCAACCACCAAUUCAUCCCACCACAUGAUGAUGCCUGAAGUGCCUGGGUUUUUUG
The “polymerase ribozyme fitness (log ratio)” value of the first is higher: -2.2 for the first, -5.57 for the second.

First: GACCAAUCCGCCCUCAGAGCUCGAGAACAUCUUCGGAUGCAGAGGAGGCAGGCUUCGGUGGCGCGAUAGCGUCAACGUCCUCAACCUCCAAUGCAUCCCACAACAUGAUGAUGCCUGAAGAGCCUUGGUUUUUUG
Second: GACCAAUCCGCCCUCAGAGCUCGAGAACAUCUUCGGAUGUAGAGGAGGCAGGCUUCGGUGGGGCGAUAGCGCCAACGUCCUCAACCUCCAAUGCAUCCCACCACAUGAUGAUGCCUCAAGAGCCUUGGUUUUUUG
The “polymerase ribozyme fitness (log ratio)” value of the first is higher: -1.5 for the first, -5.48 for the second.

Compared with GACCAAUCCGCCCUCAGAGCUCGAGAACAUCUUCGGAUGCAGAGGAGGCAGGCUUCGGUGGCGAGAAAGCGCUAACGUCCUCAAUCUCCAAUGCAUCCCACCACAUGAUGAUGCCUGAACAGCCUUGGUUUUUUG, GACCAAUCCGCCCUCAGAGCUUGAGAACAUCUUCGGAUGCAGAGGAGGCAGGCUUCGAUGCCGCGAUAGCGCCAACGUCCUCAACCUCCAAUGCAUCCCACCACAUGAUGAUGACUGAAGAGCCUUGGUUUUUUG is higher in “polymerase ribozyme fitness (log ratio)” value: -6.47 for the first, -4.7 for the second.

Going from GACCAAUCCGCCCUCAGAGCUCGAGAACAUCUUCGGAUGCAGAGGAGGCAGGCUUCGGUGGCGCGAUAGCGCCAACGUACUCAACCUCCAAUGCAUCCCACCACAUGAUGAUGCCUGAAGAGCCUUGCUUUUUUG to GACCAAUCCGUCCUCAGAGCUCGAGAACAUCUUCGGAUGCAGAGGAGGCAGGCUUCGGUGGCGCGAUAGCGCCAACGUCCUCAACCUCCAAUGCAUCCCACCACAUGAUGAUGCCUGAAGAGCCUUGGUUUUUUG, the “polymerase ribozyme fitness (log ratio)” value rises from -2.56 to 0.404.

Compared with GACCAAUCCGCCCUCAGAGCUCGAGAACAUCUUCGGAUGGAGAGGAGGCAGGCUUCGGUGGCUCGAUAUCGCCAACGUGCUUAACCUCCAAUGCAUCCCACCACAUGAUGAUGCCUGUGGAGCCUUGGUUUUUUU, GACCAAUCCGCCCUCAGAGCUCGAGAACAUCUUCGGAUGCAGAGGAGGCAGGCUUCGGUGGCGCGAUAGUGCCAACGUCCUCAACCUCCAAUGCAUCCCACGACAUGAUGAUGCCUGAAGAGCCUUGGUUUUUUG is lower in “polymerase ribozyme fitness (log ratio)” value: -4.3 for the first, -6.28 for the second.

First: GACCAAUCCGCCCUCAGAGCUCGAGAACAUCUUCGGAUGCAGAGGAGGCAGGCUUCGGUGGCGCGAUAGCGCCAACGUCCUCAACCUCCAAUGCAUCCAAUCACAUGAUGAUGCCUGAAGAGCCUUGGUUUCUUG
Second: GACCAAUCCGCCCUCAGAGCUCGAGAACAUCUUCGGAUGCAGAGGAGGAAGGUUUCGGUGGCGCGAUAGCGCCAACGUCCUCAACCUUCAAUGCAUCCCACCACAUGAUGAUGCCUGAAGAGCCUUGGUUUUAUG
The “polymerase ribozyme fitness (log ratio)” value of the first is lower: -6.34 for the first, -0.445 for the second.

Going from GACCAAUCCGCCCUGAGAGCUCGAGAACAUCUUCGGAUGCAGAGGAGGCAGGCUUCGGUGGCGCGAUAGCGCCAACGGCCUCAACCUCCAAUGCACCCCACCACAUGAUGAUGCCUGAAGAGCUUUGGUUUUUUG to GACCAAUCCGCCCUCAGAGCUCGAGAACAUCUUCGGAUGCAGAGGAGGCAGGCUUCGGUGGAGCGAUAGCGCCAGCGUCCUCAACCUCCAAUGAAUCCCACCACAUGAUAAUGCCUGAAGAGCCUUGGUUUUUUG, the “polymerase ribozyme fitness (log ratio)” value falls from -0.775 to -4.36.
